Molecular target: T1, AsfvAP WT (African swine fever virus, UniProt P0C9C6 1-296)
T1 sequence: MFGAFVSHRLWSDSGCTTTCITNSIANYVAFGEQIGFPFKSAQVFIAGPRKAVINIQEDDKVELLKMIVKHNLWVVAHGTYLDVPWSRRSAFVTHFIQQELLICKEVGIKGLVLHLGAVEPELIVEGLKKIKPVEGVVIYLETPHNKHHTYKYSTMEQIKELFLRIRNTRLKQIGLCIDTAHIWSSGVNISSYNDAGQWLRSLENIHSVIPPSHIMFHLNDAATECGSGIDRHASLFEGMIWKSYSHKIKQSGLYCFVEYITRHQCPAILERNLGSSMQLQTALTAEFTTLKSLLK
Assay: X-ray crystallography
Details: protein: recombinant; tags: His-SUMO removed with Ulp1; GSGGG linker encoded before M1

B1: DNA-2 (dsDNA)
DNA 1: GCAGCGTCACCGACGAAA
DNA 2: CCTCGTCGGGGACGCTGC
  binding result: binds
